Test results reported in US20200239541A1 (XYPHOS BIOSCIENCES, published 2020).
Substitutions are numbered along the chain they refer to. Names and notes keep the numbering of the source.

Experiments:
[1] = target: T1, MICB-Fc (R&D Systems) (human, UniProt Q29980 23-298); assay: ELISA, ligand-Fc coated, biotinylated NKG2D titrated
T1 construct: not shown: Fc of the bought reagent
T1 sequence (looked up): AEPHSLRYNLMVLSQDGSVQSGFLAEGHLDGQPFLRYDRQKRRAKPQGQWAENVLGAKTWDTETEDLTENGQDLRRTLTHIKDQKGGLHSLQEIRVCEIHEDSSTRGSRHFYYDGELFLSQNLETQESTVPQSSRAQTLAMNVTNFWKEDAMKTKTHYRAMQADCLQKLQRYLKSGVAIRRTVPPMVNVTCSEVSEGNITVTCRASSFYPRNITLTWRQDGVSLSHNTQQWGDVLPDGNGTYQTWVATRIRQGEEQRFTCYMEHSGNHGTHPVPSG
Procedure: (§1) In addition to purifying the above 3 Fc-fusion proteins NKG2D ligand-Fc fusion proteins MICB-Fc, ULBP1-Fc, ULBP2-Fc, ULBP3-Fc, and ULBP4-Fc were purchased from R&D Systems, Inc. (Minneapolis, Minn.). Binding of the different α1-α2 domain-Fc fusions to both natural and non-natural NKG2D ectodomain proteins was analyzed using a plate-based ELISA method. All of the natural and non-natural α1-α2 domain-Fc fusions were coated overnight at 4° C. onto separate wells of Maxisorp 96 well plates using a coating concentration of 2 μg/ml in phosphate-buffered saline (PBS). The plates were washed 3-times in PBS/0.05% Tween20 at 20-22° C., and blocked with 0.5% bovine serum albumin for 2 hours. The biotinylated natural and non-natural NKG2D receptor proteins were titrated against the plate-bound NKG2D ligands for 2 hours at 20-22° C., washed 3 times with PBS/0.05% Tween20 at 20-22° C., and the bound NKG2D proteins subsequently detected using a streptavidin-HRP secondary detection step and developed with 1-Step Ultra TMB Elisa.

[2] = target: T2, ULBP1-Fc (R&D Systems) (human, UniProt Q9BZM6 26-216); assay: as above
T2 construct: not shown: Fc of the bought reagent
T2 sequence (looked up): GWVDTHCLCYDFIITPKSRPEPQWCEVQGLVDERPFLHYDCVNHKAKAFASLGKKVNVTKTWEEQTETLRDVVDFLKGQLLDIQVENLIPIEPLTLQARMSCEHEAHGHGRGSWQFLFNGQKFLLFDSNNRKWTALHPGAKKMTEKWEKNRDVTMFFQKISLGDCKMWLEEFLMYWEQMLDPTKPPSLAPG
Procedure: as §1

[3] = target: T3, ULBP2-Fc (R&D Systems) (human, UniProt Q9BZM5 26-217); assay: as above
T3 construct: not shown: Fc of the bought reagent
T3 sequence (looked up): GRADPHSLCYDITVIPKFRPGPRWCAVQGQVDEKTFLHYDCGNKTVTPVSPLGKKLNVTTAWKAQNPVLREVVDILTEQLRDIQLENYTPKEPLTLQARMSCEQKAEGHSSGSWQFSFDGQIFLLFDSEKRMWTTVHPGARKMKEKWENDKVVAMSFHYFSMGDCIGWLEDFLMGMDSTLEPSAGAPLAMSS
Procedure: as §1

[4] = target: T4, ULBP3-Fc (R&D Systems) (human, UniProt Q9BZM4 30-217); assay: as above
T4 construct: not shown: Fc of the bought reagent
T4 sequence (looked up): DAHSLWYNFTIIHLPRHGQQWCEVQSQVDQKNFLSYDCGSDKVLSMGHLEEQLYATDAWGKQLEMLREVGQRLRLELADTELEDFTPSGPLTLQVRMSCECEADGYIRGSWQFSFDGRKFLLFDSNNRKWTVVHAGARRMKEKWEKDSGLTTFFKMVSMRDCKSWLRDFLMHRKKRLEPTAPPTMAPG
Procedure: as §1

[5] = target: T5, ULBP4-Fc (R&D Systems) (human, UniProt Q8TD07 31-225); assay: as above
T5 construct: not shown: Fc of the bought reagent
T5 sequence (looked up): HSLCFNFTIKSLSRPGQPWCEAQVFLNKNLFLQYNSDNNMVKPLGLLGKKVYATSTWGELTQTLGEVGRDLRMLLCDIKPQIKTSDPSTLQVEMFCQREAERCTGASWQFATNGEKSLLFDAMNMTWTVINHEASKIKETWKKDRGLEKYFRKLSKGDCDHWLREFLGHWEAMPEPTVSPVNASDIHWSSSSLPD
Procedure: as §1

[6] = target: T6, human NKG2D-Fc (human, UniProt P26718 78-216); assay: competition ELISA vs coated WT sMICA, 2 nM human NKG2D-Fc
T6 construct: also called natural NKG2D-Fc; not shown: Fc
T6 sequence (looked up): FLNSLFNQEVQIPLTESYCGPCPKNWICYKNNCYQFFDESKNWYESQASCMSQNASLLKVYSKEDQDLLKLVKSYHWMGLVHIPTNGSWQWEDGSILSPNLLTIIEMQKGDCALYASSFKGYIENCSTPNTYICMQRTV
Source text: (§2) To the NKG2DLs in the above example, we directly attached heterologous molecules such as a polypeptide to each of these 4 modified α1-α2 NKG2DLs using a linker peptide. Four His-tagged proteins (SEQ ID NOs.: 25-28) consisting of modified NKG2DLs with attached heterologous molecules were expressed in insect cells and purified to characterize their NKG2D binding affinities and kinetic binding parameters. Using a competitive binding ELISA, we determined the relative NKG2D binding affinities of the 4 modified α1-α2 variants.

[7] = target: T7, Y152A NKG2D-Fc (Example 5) (human); assay: phage ELISA
T7 construct: also called non-natural Y152A NKG2D; not shown: Fc
T7 chain: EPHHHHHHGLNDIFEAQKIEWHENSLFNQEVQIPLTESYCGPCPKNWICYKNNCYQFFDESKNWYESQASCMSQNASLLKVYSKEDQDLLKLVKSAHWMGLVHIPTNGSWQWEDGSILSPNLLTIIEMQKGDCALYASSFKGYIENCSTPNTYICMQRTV

[8] = target: T8, biotinylated human NKG2D (Example 1) (human, UniProt P26718 78-216); assay: BLI (Octet), Kd = kOFF/kON
T8 construct: also called recombinant biotinylated NKG2D
T8 sequence (looked up): T6 sequence (looked up)

[9] = target: T8, biotinylated human NKG2D (Example 1); assay: BLI (Octet), biotinylated human NKG2D coated, 100 nM analyte
[10] = target: T6, human NKG2D-Fc; assay: competition ELISA vs coated WT sMICA
Source text: as §2

B1: His-avitag natural NKG2D ectodomain, biotinylated (receptor)
chain: T7 chain with A96Y
notes: also called natural form of the ectodomain of NKG2D
- binding result [1]: binds
- binding result [2]: binds
- binding result [3]: binds
- binding result [4]: binds
- binding result [5]: binds

B2: Y152A mutant NKG2D ectodomain (His-avitag, biotinylated) (receptor)
chain: T7 chain
notes: also called Y152A non-natural NKG2D receptor; not shown: N-terminal His-avitag
- binding result [1]: no binding
- binding result [2]: no binding
- binding result [3]: no binding
- binding result [4]: no binding
- binding result [5]: no binding

B3: Y199A mutant NKG2D ectodomain (His-avitag, biotinylated) (receptor)
chain: T7 chain with A96Y, Y143A
notes: not shown: N-terminal His-avitag
- binding result [1]: no binding
- binding result [2]: no binding
- binding result [3]: no binding
- binding result [4]: no binding
- binding result [5]: no binding

B4: double Y152A plus Y199A mutant NKG2D ectodomain (His-avitag, biotinylated) (receptor)
chain: T7 chain with Y143A
notes: as for B3
- binding result [1]: no binding
- binding result [2]: no binding
- binding result [3]: no binding
- binding result [4]: no binding
- binding result [5]: no binding

B5: WT α1-α2 domain (soluble wild-type MICA, titrated) (ligand, UniProt Q29983 24-204, looked up)
chain: EPHSLRYNLTVLSWDGSVQSGFLTEVHLDGQPFLRCDRQKCRAKPQGQWAEDVLGNKTWDRETRDLTGNGKDLRMTLAHIKDQKEGLHSLQEIRVCEIHEDNSTRSSQHFYYDGELFLSQNLETKEWTMPQSSRAQTLAMNVRNFLKEDAMKTKTHYHAMHADCLQELRRYLKSGVVLRRT
notes: domain: α1-α2; also called WT MICA; WT NKG2DL
- IC50 [6]: 19.4 nM

B6: ULBP2.S1 (phage clone) (ligand)
chain: AAEPHSLSYDITVIPKFRPGPRWCAVQGQVDEKTFLHYDCGNKTVTPVSPLGKKLNVTTAWKAQNPVLREVVDILTEQLWDIQLENYTPKEPLTLQARMSCEQKAEGHSSGSWQFSFDGQIFLLFDSEKRMWTTVHPGARKMKEKWENDKVVATTLYTWSMGDCIGWLEDFLMGMDSTLEPSAGAP
- fold selective binding to Y152A NKG2D over natural NKG2D [7]: > 10 fold

B7: ULBP2.S2 (phage clone) (ligand)
chain: B6 chain with T155L, L156M, Y157R, T158I
- fold selective binding to Y152A NKG2D over natural NKG2D [7]: > 10 fold

B8: ULBP2.S3 (phage clone) (ligand)
chain: B6 chain with T155K, T158L
- fold selective binding to Y152A NKG2D over natural NKG2D [7]: > 10 fold

B9: MICA25.17 (phage clone) (ligand)
chain: EPHSLRYNLTVLSWDGSVQSGFLTEVHLDGQPFLRCDRQKCRAKPQGQWAEDVLGNKTWDRETRDLTGWGTTLLMTLAHIKDQKEGLHSLQEIRVCEIHEDNSTRSSQHFYYDGELFLSQNLETLEWTMPQSSRAQTLAMNVRNFLKEDAMETDIGYRLMRADCLSELRRYLKSGVVLRRTV
- fold selective binding to Y152A NKG2D over natural NKG2D [7]: > 10 fold

B10: MICA25.18 (phage clone) (ligand)
chain: B9 chain with T72F, L74R, I155R, G156S, Y157G, R158L
- fold selective binding to Y152A NKG2D over natural NKG2D [7]: > 10 fold

B11: ULBP3.S1 (phage clone) (ligand)
chain: AAEPHSLWYNFTIIHLPRHGQQWCEVQSQVDQKNFLSYDCGSDKVLSMGHLEEQLYATDAWGKQLEMLREVGQRLRLELADTELEDFTPSGPLTLQVRMSCESEADGYIRGSWQFSFDGRKFLLFDSNNRKWTVVHAGARRMKEKWEKDSGLTTDLIRRSMGDCKSWLRDFLMHRKKRLEPTAP
- fold selective binding to Y152A NKG2D over natural NKG2D [7]: > 10 fold

B12: ULBP3.S2 (phage clone) (ligand)
chain: B11 chain with D155Y, L156F, I157Y, R158L
- fold selective binding to Y152A NKG2D over natural NKG2D [7]: > 10 fold

B13: WED-MICA α1-α2 domain (N69W, K152E, K154D) (ligand)
chain: EPHSLRYNLTVLSWDGSVQSGFLTEVHLDGQPFLRCDRQKCRAKPQGQWAEDVLGNKTWDRETRDLTGWGKDLRMTLAHIKDQKEGLHSLQEIRVCEIHEDNSTRSSQHFYYDGELFLSQNLETKEWTMPQSSRAQTLAMNVRNFLKEDAMETDTHYHAMHADCLQELRRYLKSGVVLRRTVPPMVQVTRSEASGGSGDRVTITCRASQDVSTAVAWYQQKPGKAPKLLIYSASFLYSGVPSRFSGSGSGTDFTLTISSLQPEDFATYYCQQSYTTPPTFGQGTKVEIKGGSSRSSSSGGGGSGGGGEVQLVESGGGLVQPGGSLRLSCAASGFTFTSTGISWVRQAPGKGLEWVGRIYPTNGSTNYADSVKGRFTISADTSKNTAYLQMNSLRAEDTAVYYCARTYGIYDLYVDYTEYVMDYWGQGTLVTVSSGGSSRSSSSGGGGSGGGGDIQMTQSPSSLSASGGSGQITVTCRASGFYPWNITLSWRQDGVSLSHDTQQWGDVLPDGQGTYQTWVATRISQGEEQRFTCYMEHSGQHSTHPVPSGKGSHHHHHH
notes: also called WED-α1-α2; MICwed
- Kd [8]: 5.9 nM
- IC50 [6]: 4.4 nM
- koff [9]: 0.0017 s⁻¹
- kon [9]: 290000 M⁻¹ s⁻¹

B14: α1-α2 variant 15 (His-tagged, with attached heterologous polypeptide) (ligand)
chain: B13 chain with K125N, H161R
- Kd [8]: 1.5 nM
- fold better binding than WT NKG2DL [10]: 11 fold
- IC50 [6]: 1.7 nM
- koff [9]: 0.00011 s⁻¹
- kon [9]: 70000 M⁻¹ s⁻¹
